One substance from article PMC2120550 can be followed below.

The assay has as its target lysin from the pink abalone (H. corrugata) (Haliotis corrugata (pink abalone)). Kind of assay: cross-linking.

lysin from the pink abalone (H. corrugata) (natural protein), sequence (P19448 19-155 limits assumed): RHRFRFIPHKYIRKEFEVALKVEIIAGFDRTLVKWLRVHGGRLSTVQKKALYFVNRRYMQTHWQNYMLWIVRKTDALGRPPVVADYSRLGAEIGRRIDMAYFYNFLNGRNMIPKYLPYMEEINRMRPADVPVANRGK

As to “lysin from the pink abalone (H. corrugata) (natural protein)”, the stoichiometry N came out at 2.

For orientation: stoichiometry N means a count of units in the complex or per binding partner.
